In publication PMC10899662, “TopBP1 utilises a bipartite GINS binding mode to support genome replication” (Nature Communications, 2024):

Tested on: GINS
Assay: Competition of PolE2-N with TopBP1 for immobilised GINS
Type: binding
Settings: 150 mM NaCl; ten times molar excess of PolE2-N
Source text: We next explored the relationship between the interactions of TopBP1 and DNA Polε with GINS. These proteins are part of the recently characterised metazoan pre-LC[37]–[40]. […] These pre-LC models are less informative on how DNA Polε affects the TopBP1-GINS interaction. The N-terminal region of PolE2 (PolE2-N; aa 1–75) binds GINS mainly at the Psf1-B domain, with minor interactions with residues in the A-domain that partly overlap with the TopBP1-BRCT4 interaction surface (Fig. 7a–c). To test if the Psf1-B domain is required for TopBP1 interaction, we did pulldowns with GINS lacking the Psf1-B domain (Psf1-ΔB). […] This could be due to a residual affinity of BRCT4 for Psf1-ΔB or due to the GINI-Psf1 interaction. We therefore analysed specifically the interaction of GINS with BRCT4 using the TopBP1-Gcc mutant. […] The moderate effect of the B domain deletion on BRCT4 binding is consistent with the partial overlap of the BRCT4 and PolE2 binding sites in Psf1. […] Together, in pre-LC, TopBP1 likely binds GINS through the GINI region, potentially also involving a residual affinity of BRCT4 for GINS despite the presence of DNA Polε. TopBP1 and GINS are likely further stabilised in pre-LCs via their interactions with DONSON[37],[38],[41]. […]

B1: TopBP1-BRCT0-5-WT: recombinant TopBP1 amino acids 1–766, strep-tagged (protein)
chain: MSRNDKEPFFVKFLKSSDNSKCFFKALESIKEFQSEEYLQIITEEEALKIKENDRSLYICDPFSGVVFDHLKKLGCRIVGPQVVIFCMHHQRCVPRAEHPVYNMVMSDVTISCTSLEKEKREEVHKYVQMMGGRVYRDLNVSVTHLIAGEVGSKKYLVAANLKKPILLPSWIKTLWEKSQEKKITRYTDINMEDFKCPIFLGCIICVTGLCGLDRKEVQQLTVKHGGQYMGQLKMNECTHLIVQEPKGQKYECAKRWNVHCVTTQWFFDSIEKGFCQDESIYKTEPRPEAKTMPNSSTPTSQINTIDSRTLSDVSNISNINASCVSESICNSLNSKLEPTLENLENLDVSAFQAPEDLLDGCRIYLCGFSGRKLDKLRRLINSGGGVRFNQLNEDVTHVIVGDYDDELKQFWNKSAHRPHVVGAKWLLECFSKGYMLSEEPYIHANYQPVEIPVSHKPESKAALLKKKNSSFSKKDFAPSEKHEQADEDLLSQYENGSSTVVEAKTSEARPFNDSTHAEPLNDSTHISLQEENQSSVSHCVPDVSTITEEGLFSQKSFLVLGFSNENESNIANIIKENAGKIMSLLSRTVADYAVVPLLGCEVEATVGEVVTNTWLVTCIDYQTLFDPKSNPLFTPVPVMTGMTPLEDCVISFSQCAGAEKESLTFLANLLGASVQEYFVRKSNAKKGMFASTHLILKERGGSKYEAAKKWNLPAVTIAWLLETARTGKRADESHFLIENSTKEERSLETEITNGINLNSDTAEHP
modifications: left off: Strep, C-terminal, kept
notes: recombinant TopBP1 amino acids 1–766, strep-tagged
With B1 as the molecule, how does the “competition by PolE2-N in stringent pulldown conditions” value read?
The value was “largely resistant to PolE2 competition”.
